IntAct's records for PubMed 25910212

B1: Acetylcholine receptor subunit gamma (Homo sapiens), P07510-2 (parent)
chain: MHGGQGPLLLLLLLAVCLGAQGRNQEERLLADLMQNYDPNLRPAERDSDVVNVSLKLTLTNLISLNEREEALTTNVWIEMQWCDYRLRWDPRDYEGLWVLRVPSTMVWRPDIVLENKSQTYSTNEIDLQLSQEDGQTIEWIFIDPEAFTENGEWAIQHRPAKMLLDPAAPAQEAGHQKVVFYLLIQRKPLFYVINIIAPCVLISSVAILIHFLPAKAGGQKCTVAINVLLAQTVFLFLVAKKVPETSQAVPLISKYLTFLLVVTILIVVNAVVVLNVSLRSPHTHSMARGVRKVFLRLLPQLLRMHVRPLAPAAVQDTQSRLQNGSSGWSITTGEEVALCLPRSELLFQQWQRQGLVAAALEKLEKGPELGLSQFCGSLKQAAPAIQACVEACNLIACARHQQSHFDNGNEEWFLVGRVLDRVCFLAMLSLFICGTAGIFLMAHYNRVPALPFPGDPRPYLPSPD
B2: Meiotic recombination protein DMC1/LIM15 homolog (Homo sapiens), Q14565 (parent)
chain: MKEDQVVAEEPGFQDEEESLFQDIDLLQKHGINVADIKKLKSVGICTIKGIQMTTRRALCNVKGLSEAKVDKIKEAANKLIEPGFLTAFEYSEKRKMVFHITTGSQEFDKLLGGGIESMAITEAFGEFRTGKTQLSHTLCVTAQLPGAGGYPGGKIIFIDTENTFRPDRLRDIADRFNVDHDAVLDNVLYARAYTSEHQMELLDYVAAKFHEEAGIFKLLIIDSIMALFRVDFSGRGELAERQQKLAQMLSRLQKISEEYNVAVFVTNQMTADPGATMTFQADPKKPIGGHILAHASTTRISLRKGRGELRIAKIYDSPEMPENEATFAITAGGIGDAKE
partner: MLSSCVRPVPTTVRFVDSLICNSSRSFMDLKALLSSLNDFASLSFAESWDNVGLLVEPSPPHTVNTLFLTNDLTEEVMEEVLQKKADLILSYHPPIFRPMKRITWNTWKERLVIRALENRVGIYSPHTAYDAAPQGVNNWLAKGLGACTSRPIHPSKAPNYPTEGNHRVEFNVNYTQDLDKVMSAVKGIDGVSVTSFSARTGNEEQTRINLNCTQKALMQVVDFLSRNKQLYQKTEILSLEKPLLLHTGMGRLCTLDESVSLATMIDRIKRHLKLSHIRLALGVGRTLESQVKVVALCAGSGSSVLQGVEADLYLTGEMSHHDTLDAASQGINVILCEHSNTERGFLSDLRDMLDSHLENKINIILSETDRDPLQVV
B3: Beta-crystallin A4 (Homo sapiens), P53673 (parent)
chain: MTLQCTKSAGPWKMVVWDEDGFQGRRHEFTAECPSVLELGFETVRSLKVLSGAWVGFEHAGFQGQQYILERGEYPSWDAWGGNTAYPAERLTSFRPAACANHRDSRLTIFEQENFLGKKGELSDDYPSLQAMGWEGNEVGSFHVHSGAWVCSQFPGYRGFQYVLECDHHSGDYKHFREWGSHAPTFQVQSIRRIQQ
partner: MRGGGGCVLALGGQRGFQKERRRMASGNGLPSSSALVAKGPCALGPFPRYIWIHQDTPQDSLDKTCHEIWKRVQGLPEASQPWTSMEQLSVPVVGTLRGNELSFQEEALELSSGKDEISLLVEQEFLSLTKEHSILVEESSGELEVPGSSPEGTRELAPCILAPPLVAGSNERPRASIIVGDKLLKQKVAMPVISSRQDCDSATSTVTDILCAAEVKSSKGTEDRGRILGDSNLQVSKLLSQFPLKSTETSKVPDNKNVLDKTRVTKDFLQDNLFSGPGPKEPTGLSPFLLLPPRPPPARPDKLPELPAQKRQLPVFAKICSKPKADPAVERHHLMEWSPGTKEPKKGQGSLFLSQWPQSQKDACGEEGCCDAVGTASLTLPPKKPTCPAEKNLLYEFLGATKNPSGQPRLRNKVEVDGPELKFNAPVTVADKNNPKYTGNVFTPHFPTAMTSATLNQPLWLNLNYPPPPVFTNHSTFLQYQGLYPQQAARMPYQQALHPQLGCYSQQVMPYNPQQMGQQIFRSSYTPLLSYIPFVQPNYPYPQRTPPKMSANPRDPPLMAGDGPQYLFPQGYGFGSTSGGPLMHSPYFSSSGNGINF
B4: von Hippel-Lindau disease tumor suppressor (Homo sapiens), P40337-2 (parent)
chain: MPRRAENWDEAEVGAEEAGVEEYGPEEDGGEESGAEESGPEESGPEELGAEEEMEAGRPRPVLRSVNSREPSQVIFCNRSPRVVLPVWLNFDGEPQPYPTLPPGTGRRIHSYRVYTLKERCLQVVRSLVKPENYRRLDIVRSLYEDLEDHPNVQKDLERLTQERIAHQRMGD
B5: Fibulin-5 (Homo sapiens), Q9UBX5 (parent)
chain: MPGIKRILTVTILALCLPSPGNAQAQCTNGFDLDRQSGQCLDIDECRTIPEACRGDMMCVNQNGGYLCIPRTNPVYRGPYSNPYSTPYSGPYPAAAPPLSAPNYPTISRPLICRFGYQMDESNQCVDVDECATDSHQCNPTQICINTEGGYTCSCTDGYWLLEGQCLDIDECRYGYCQQLCANVPGSYSCTCNPGFTLNEDGRSCQDVNECATENPCVQTCVNTYGSFICRCDPGYELEEDGVHCSDMDECSFSEFLCQHECVNQPGTYFCSCPPGYILLDDNRSCQDINECEHRNHTCNLQQTCYNLQGGFKCIDPIRCEEPYLRISDNRCMCPAENPGCRDQPFTILYRDMDVVSGRSVPADIFQMQATTRYPGAYYIFQIKSGNEGREFYMRQTGPISATLVMTRPIKGPREIQLDLEMITVNTVINFRGSSVIRLRIYVSQYPF
partner: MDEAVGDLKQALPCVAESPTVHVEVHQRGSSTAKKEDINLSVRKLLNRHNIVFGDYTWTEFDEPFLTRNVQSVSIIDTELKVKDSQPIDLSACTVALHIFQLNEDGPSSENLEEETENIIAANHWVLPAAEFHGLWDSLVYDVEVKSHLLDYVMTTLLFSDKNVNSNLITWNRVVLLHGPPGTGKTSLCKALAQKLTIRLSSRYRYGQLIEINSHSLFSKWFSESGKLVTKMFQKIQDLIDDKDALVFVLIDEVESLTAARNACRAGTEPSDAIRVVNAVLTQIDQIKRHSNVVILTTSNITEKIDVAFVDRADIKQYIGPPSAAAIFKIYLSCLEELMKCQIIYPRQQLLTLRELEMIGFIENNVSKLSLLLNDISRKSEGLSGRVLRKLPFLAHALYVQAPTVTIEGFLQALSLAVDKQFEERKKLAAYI
B6: Alpha-sarcoglycan (Homo sapiens), Q16586 (parent)
chain: MAETLFWTPLLVVLLAGLGDTEAQQTTLHPLVGRVFVHTLDHETFLSLPEHVAVPPAVHITYHAHLQGHPDLPRWLRYTQRSPHHPGFLYGSATPEDRGLQVIEVTAYNRDSFDTTRQRLVLEIGDPEGPLLPYQAEFLVRSHDAEEVLPSTPASRFLSALGGLWEPGELQLLNVTSALDRGGRVPLPIEGRKEGVYIKVGSASPFSTCLKMVASPDSHARCAQGQPPLLSCYDTLAPHFRVDWCNVTLVDKSVPEPADEVPTPGDGILEHDPFFCPPTEAPDRDFLVDALVTLLVPLLVALLLTLLLAYVMCCRREGRLKRDLATSDIQMVHHCTIHGNTEELRQMAASREVPRPLSTLPMFNVHTGERLPPRVDSAQVPLILDQH
B7: DNA excision repair protein ERCC-1 (Homo sapiens), P07992-3 (parent)
chain: MDPGKDKEGVPQPSGPPARKKFVIPLDEDEVPPGVAKPLFRSTQSLPTVDTSAQAAPQTYAEYAISQPLEGAGATCPTGSEPLAGETPNQALKPGAKSNSIIVSPRQRGNPVLKFVRNVPWEFGDVIPDYVLGQSTCALFLSLRYHNLHPDYIHGRLQSLGKNFALRVLLVQVDVKDPQQALKELAKMCILADCTLILAWSPEEAGRYLETYKAYEQKPADLLMEKLEQDFVSRVTECLTTVKSVNKTDSQTLLTTFGSLEQLIAASREDLALCPGLGPQKVRALGKNPRSWGKERAPNKHNLRPQSFKVKKEPKTRHSGFRL
partner: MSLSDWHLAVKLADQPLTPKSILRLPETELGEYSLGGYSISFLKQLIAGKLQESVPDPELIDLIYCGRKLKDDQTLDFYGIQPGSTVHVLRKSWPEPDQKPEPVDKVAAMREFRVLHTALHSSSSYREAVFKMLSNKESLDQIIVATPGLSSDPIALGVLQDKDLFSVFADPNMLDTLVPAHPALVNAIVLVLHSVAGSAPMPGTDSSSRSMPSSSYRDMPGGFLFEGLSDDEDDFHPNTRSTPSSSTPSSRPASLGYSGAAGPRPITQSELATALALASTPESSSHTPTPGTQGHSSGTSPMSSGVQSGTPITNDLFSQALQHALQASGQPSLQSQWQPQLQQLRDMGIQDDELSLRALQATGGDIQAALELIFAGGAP
B8: 60 kDa heat shock protein, mitochondrial (Homo sapiens), P10809 (parent)
chain: MLRLPTVFRQMRPVSRVLAPHLTRAYAKDVKFGADARALMLQGVDLLADAVAVTMGPKGRTVIIEQSWGSPKVTKDGVTVAKSIDLKDKYKNIGAKLVQDVANNTNEEAGDGTTTATVLARSIAKEGFEKISKGANPVEIRRGVMLAVDAVIAELKKQSKPVTTPEEIAQVATISANGDKEIGNIISDAMKKVGRKGVITVKDGKTLNDELEIIEGMKFDRGYISPYFINTSKGQKCEFQDAYVLLSEKKISSIQSIVPALEIANAHRKPLVIIAEDVDGEALSTLVLNRLKVGLQVVAVKAPGFGDNRKNQLKDMAIATGGAVFGEEGLTLNLEDVQPHDLGKVGEVIVTKDDAMLLKGKGDKAQIEKRIQEIIEQLDVTTSEYEKEKLNERLAKLSDGVAVLKVGGTSDVEVNEKKDRVTDALNATRAAVEEGIVLGGGCALLRCIPALDSLTPANEDQKIGIEIIKRTLKIPAMTIAKNAGVEGSLIVEKIMQSSSEVGYDAMAGDFVNMVEKGIIDPTKVVRTALLDAAGVASLLTTAEVVVTEIPKEEKDPGMGAMGGMGGGMGGGMF

Variants of: B1
Settings: with mdfi_human MDFI
Target sequence in this assay (Q99750 whole entry): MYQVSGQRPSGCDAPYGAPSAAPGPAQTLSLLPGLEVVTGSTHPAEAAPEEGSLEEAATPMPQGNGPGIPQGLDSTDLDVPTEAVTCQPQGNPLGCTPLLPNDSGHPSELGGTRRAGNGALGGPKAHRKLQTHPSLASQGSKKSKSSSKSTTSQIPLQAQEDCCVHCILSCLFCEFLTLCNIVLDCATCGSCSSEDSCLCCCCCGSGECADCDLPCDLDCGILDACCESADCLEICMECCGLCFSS

Variant | effect of a mutation on the interaction
R86C | disrupting interaction strength
V107G | disrupting interaction strength

Variants of: B1
Settings: with nt2na_human NOTCH2NLA

Variant | effect of a mutation on the interaction
R86C | disrupting interaction strength
V107G | disrupting interaction strength

Variants of: B1
Settings: with k1h1_human KRT31, Q15323
Sequence of k1h1_human KRT31, Q15323 (Q15323 whole entry): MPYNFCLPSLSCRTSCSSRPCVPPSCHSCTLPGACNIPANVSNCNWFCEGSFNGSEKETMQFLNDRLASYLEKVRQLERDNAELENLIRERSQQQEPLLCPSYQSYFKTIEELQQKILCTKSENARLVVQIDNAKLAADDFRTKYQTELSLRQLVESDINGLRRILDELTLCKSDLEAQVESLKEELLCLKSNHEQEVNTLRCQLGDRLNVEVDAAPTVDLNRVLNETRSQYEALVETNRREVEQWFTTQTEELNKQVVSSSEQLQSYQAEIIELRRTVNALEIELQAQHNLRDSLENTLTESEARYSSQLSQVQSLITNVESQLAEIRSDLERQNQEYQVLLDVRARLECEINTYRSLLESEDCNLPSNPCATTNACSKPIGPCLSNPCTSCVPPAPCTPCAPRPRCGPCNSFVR

Variant | effect of a mutation on the interaction
R86C | disrupting interaction strength
V107G | disrupting interaction strength

Variants of: B1
Settings: with meox2_human MEOX2, P50222
Sequence of meox2_human MEOX2, P50222 (P50222 whole entry): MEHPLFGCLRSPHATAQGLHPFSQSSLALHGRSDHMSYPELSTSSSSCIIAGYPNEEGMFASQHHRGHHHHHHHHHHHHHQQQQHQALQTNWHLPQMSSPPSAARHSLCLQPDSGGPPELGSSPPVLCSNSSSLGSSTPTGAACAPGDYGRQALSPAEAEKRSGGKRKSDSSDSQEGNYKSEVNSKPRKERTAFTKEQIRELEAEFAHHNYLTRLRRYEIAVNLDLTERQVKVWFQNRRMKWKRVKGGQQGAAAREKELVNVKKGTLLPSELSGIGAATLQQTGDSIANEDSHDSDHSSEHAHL

Variant | effect of a mutation on the interaction
R86C | disrupting interaction strength
V107G | disrupting interaction strength

Variants of: B2
Settings: with nif3l_human NIF3L1, Q9GZT8

Variant | effect of a mutation on the interaction
M200V | disrupting interaction strength

Variants of: B3
Settings: with ca094_human C1orf94, Q6P1W5

Variant | effect of a mutation on the interaction
V36M | disrupting interaction strength
F94S | disrupting interaction strength
L69P | disrupting interaction strength

Variants of: B4
Settings: with mdfi_human MDFI
Target sequence in this assay (Q99750 whole entry): as the sequence (Q99750 whole entry) above

Variant | effect of a mutation on the interaction
S111I | disrupting interaction strength
S38P | disrupting interaction strength

Variants of: B5
Settings: with pch2_human TRIP13, Q15645

Variant | effect of a mutation on the interaction
V60L | disrupting interaction strength

Variants of: B6
Settings: with sgta_human SGTA

Variant | effect of a mutation on the interaction
R98H | with no effect
T208I | with no effect
M312R | with no effect

Variants of: B7
Settings: with ubl7_human UBL7, Q96S82

Variant | effect of a mutation on the interaction
F231L | with no effect

Variants of: B8
Settings: with lzts2_human LZTS2, Q9BRK4
Sequence of lzts2_human LZTS2, Q9BRK4 (Q9BRK4 whole entry): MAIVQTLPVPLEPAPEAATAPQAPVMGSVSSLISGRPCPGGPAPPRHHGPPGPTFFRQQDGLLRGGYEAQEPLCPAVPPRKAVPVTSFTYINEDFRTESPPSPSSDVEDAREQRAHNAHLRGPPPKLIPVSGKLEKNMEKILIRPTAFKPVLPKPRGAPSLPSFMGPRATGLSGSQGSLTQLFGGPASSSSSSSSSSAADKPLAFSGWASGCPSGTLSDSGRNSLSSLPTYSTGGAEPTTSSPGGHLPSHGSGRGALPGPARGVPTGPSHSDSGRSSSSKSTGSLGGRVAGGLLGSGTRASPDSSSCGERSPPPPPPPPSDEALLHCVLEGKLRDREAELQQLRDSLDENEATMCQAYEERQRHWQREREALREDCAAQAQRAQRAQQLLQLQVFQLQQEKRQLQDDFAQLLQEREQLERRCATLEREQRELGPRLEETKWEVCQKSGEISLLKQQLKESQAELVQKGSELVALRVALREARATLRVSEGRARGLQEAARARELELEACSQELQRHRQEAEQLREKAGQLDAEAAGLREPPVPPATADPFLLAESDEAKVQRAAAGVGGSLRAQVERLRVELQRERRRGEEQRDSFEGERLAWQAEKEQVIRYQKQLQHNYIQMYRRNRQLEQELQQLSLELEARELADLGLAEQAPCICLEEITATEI

Variant | effect of a mutation on the interaction
Q461E | with no effect
